Tests used:
DX2 complex = target: T1, DX2 complex (human, UniProt O75771;O43543 1-328;1-280); experiment: EMSA; EMSA: 20 mM Tris-HCl pH 7.5, 2 mM MgCl2, 2 mM ATP, 37 C, 20 nM DNA, glutaraldehyde fixation; stopped-flow: 25 mM Tris-HCl pH 7.5, 5 mM MgCl2, 50 mM KCl, 2 mM ATP, 0.5 mM EDTA, 10% glycerol, 37 C; BLI: 50 mM Tris-HCl pH 7.5, 2 mM ATP, 50 mM KCl, 5 mM MgCl2, 0.05% Tween 20, room temperature; conditions: protein: recombinant; tags: His-tag; copies: 1;1; label: 3' FITC
T1 sequence 1: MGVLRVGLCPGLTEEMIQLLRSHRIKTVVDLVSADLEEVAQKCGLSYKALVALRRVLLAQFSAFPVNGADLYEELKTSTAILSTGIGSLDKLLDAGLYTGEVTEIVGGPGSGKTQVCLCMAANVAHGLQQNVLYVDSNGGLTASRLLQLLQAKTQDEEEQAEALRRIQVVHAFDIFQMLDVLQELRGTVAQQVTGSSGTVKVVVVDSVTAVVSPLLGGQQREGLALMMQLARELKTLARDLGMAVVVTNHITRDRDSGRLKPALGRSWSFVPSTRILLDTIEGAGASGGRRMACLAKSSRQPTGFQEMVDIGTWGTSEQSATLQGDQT
T1 sequence 2: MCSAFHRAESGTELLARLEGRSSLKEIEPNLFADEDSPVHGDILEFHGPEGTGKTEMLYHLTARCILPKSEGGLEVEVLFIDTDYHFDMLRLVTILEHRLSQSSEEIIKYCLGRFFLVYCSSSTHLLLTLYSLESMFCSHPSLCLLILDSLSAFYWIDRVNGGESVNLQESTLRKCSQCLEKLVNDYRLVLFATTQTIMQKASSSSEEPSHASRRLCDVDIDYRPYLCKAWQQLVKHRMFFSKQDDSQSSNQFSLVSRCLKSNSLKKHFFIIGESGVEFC

BC complex = target: T2, BC complex (human, UniProt O15315;O43502 1-384;1-376); experiment: as above; conditions: protein: recombinant; tags: Strep-tag; copies: 1;1; label: 3' FITC
T2 sequence 1: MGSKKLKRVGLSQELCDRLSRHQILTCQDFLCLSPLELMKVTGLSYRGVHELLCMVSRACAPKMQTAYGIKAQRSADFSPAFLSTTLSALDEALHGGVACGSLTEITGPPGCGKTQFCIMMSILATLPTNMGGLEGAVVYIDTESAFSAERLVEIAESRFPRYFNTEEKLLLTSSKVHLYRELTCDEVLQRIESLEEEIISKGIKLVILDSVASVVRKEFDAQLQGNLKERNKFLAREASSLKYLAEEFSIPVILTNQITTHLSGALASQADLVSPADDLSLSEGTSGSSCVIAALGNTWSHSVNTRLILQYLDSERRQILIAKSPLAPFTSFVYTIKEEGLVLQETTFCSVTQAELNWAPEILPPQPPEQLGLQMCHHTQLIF
T2 sequence 2: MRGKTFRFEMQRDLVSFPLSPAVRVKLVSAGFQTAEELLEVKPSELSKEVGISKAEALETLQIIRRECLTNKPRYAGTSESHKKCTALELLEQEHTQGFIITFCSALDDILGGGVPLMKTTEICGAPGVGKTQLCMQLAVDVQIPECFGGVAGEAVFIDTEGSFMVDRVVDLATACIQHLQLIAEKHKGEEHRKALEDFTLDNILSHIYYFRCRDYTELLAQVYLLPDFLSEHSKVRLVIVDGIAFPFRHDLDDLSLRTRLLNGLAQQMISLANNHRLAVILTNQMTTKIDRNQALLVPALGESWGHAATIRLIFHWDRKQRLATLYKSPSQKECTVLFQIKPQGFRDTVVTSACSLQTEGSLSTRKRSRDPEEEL

BCDX2 complex [1] = target: T3, BCDX2 complex (human, UniProt O15315;O43502;O75771;O43543 1-384;1-376;1-328;1-280); experiment: EMSA; ATP, Mg2+; EMSA: 20 mM Tris-HCl pH 7.5, 2 mM MgCl2, 2 mM ATP, 37 C, 20 nM DNA, glutaraldehyde fixation; stopped-flow: 25 mM Tris-HCl pH 7.5, 5 mM MgCl2, 50 mM KCl, 2 mM ATP, 0.5 mM EDTA, 10% glycerol, 37 C; BLI: 50 mM Tris-HCl pH 7.5, 2 mM ATP, 50 mM KCl, 5 mM MgCl2, 0.05% Tween 20, room temperature; conditions: protein: recombinant; tags: Strep-tag and His-tag (XRCC2 N-terminal His); copies: 1;1;1;1; label: 3' FITC
T3 sequence 1: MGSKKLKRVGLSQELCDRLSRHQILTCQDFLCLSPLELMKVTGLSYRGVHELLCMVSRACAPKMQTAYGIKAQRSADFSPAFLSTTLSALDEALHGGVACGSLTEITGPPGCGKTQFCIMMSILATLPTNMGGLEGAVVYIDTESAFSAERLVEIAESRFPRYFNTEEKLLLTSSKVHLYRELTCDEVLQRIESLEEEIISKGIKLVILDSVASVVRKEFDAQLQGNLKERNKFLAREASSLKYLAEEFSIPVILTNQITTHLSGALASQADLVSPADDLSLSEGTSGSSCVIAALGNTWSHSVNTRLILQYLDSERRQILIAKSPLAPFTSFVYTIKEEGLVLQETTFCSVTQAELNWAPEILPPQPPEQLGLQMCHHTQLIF
T3 sequence 2: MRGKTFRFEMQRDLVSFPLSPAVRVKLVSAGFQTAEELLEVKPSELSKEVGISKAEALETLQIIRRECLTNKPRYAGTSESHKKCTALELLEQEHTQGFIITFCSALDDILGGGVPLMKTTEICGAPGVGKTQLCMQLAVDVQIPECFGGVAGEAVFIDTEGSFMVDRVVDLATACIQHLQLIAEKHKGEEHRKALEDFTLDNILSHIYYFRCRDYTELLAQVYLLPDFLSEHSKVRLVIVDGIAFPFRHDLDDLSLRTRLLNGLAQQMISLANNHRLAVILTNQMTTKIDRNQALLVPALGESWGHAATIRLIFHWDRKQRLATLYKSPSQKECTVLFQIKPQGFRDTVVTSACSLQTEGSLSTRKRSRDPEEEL
T3 sequence 3: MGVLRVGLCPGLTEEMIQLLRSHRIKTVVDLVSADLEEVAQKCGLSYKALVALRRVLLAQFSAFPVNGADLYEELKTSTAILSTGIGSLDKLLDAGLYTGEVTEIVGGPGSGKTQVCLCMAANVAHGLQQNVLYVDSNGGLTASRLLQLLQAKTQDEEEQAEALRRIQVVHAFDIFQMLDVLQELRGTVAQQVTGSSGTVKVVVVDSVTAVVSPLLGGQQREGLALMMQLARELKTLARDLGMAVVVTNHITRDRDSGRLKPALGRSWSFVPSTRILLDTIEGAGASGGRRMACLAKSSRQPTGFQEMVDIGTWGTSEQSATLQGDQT
T3 sequence 4: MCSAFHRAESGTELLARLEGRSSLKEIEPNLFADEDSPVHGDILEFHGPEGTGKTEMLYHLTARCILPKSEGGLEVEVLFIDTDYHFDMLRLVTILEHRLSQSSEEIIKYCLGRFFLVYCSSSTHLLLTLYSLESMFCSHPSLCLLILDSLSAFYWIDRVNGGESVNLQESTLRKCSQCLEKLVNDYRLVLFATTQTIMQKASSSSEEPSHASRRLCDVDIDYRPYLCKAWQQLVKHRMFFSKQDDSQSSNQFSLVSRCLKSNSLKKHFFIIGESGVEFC

BCDX2 complex [2] = target: T3, BCDX2 complex; experiment: EMSA; stronger than ssDNA; EMSA: 20 mM Tris-HCl pH 7.5, 2 mM MgCl2, 2 mM ATP, 37 C, 20 nM DNA, glutaraldehyde fixation; stopped-flow: 25 mM Tris-HCl pH 7.5, 5 mM MgCl2, 50 mM KCl, 2 mM ATP, 0.5 mM EDTA, 10% glycerol, 37 C; BLI: 50 mM Tris-HCl pH 7.5, 2 mM ATP, 50 mM KCl, 5 mM MgCl2, 0.05% Tween 20, room temperature; conditions: protein: recombinant, tags: Strep-tag and His-tag (XRCC2 N-terminal His), copies: 1;1;1;1

AGCTACCATGCCTGCACGAATTAAGCAATTCGTAATCATGGTCATAGCT (ssDNA) [ssDNA 49mer]: no binding (DX2 complex); no binding (BC complex); binds (BCDX2 complex [1]).

B1: 3' flap (mixed)
DNA 1: AGCTACCATGCCTGCACGAATTAAGCAATTCGTAATCATGGTCATAGCT
DNA 2: AGCTATGACCATGATTACGAATTGCTTGGAATCCTGACGAACTGTAG
DNA 3: AATTCGTGCAGGCATGGTAGCT
B1: binds (BCDX2 complex [2]; label: 5' FITC on strand 1, flap 1:2 1:3).

B2: Y-form (mixed)
DNA 1: AGCTACCATGCCTGCACGAATTAAGCAATTCGTAATCATGGTCATAGCT
DNA 2: AGCTATGACCATGATTACGAATTGCTTGGAATCCTGACGAACTGTAG
B2: binds (BCDX2 complex [2]; label: 3' FITC on strand 1, fork 1:2).
